This is an account of results in publication PMC6556580 (The Journal of Biological Chemistry, 2019).

Several values for one entry are separate records, joined by “and”; a condition that tells them apart may be missing. Equal values may be shown once. Read-outs that look alike come from different tables or passages of the source.

Data set [1] deals with the molecule itself. Briefly: SEC-MALS; samples at 0.5–20 mg/ml in 20 mM Tris pH 8.0, 150 mM KCl, 2 mM DTT; Superdex 200 Increase 10/300 GL; concentration series and enriched species; self-association: dimer and higher oligomers of dimers. In general terms: Size exclusion chromatography separates by hydrodynamic size, large species first.
Data set [2] concerns the molecule itself. Description: dynamic light scattering; 20 °C, samples at 5–20 mg/ml in 20 mM Tris pH 8.0, 150 mM KCl, 2 mM DTT; size distribution by volume.
Data set [3] deals with the molecule itself. Briefly: SEC-MALS; samples at 0.5–20 mg/ml in 20 mM Tris pH 8.0, 150 mM KCl, 2 mM DTT; Superdex 200 Increase 10/300 GL; concentration series and enriched species; self-association: dimer and higher oligomers of dimers. This is another data set of the same source.

B1: SYCE3 9–88 Y11N/L15N (domain or fragment, human, UniProt A1L190 9-88, looked up)
chain: RNNDNMNKMLSDLNKDLEKLLEEMEKISVQATWMAYDMVVMRTNPTLAESMRRLEDAFVNCKEEMEKNWQELLHETKQRL
notes: SYCE3, human, amino acids 9–88 with Y11N and L15N (label of the legend; the text says 'mutation to glutamine'); source: E. coli BL21(DE3), purified (Ni-NTA, amylose, anion exchange, SEC where appropriate); not shown: His6, N-terminal, cleaved; MBP, N-terminal, cleaved
For the protein B1, in data set [1], the “stoichiometry N” value is 2.

B2: SYCE3 9–88 (domain or fragment, human, UniProt A1L190 9-88, looked up)
chain: RNYDNMLKMLSDLNKDLEKLLEEMEKISVQATWMAYDMVVMRTNPTLAESMRRLEDAFVNCKEEMEKNWQELLHETKQRL
notes: SYCE3, human, amino acids 9–88 (unstructured N terminus removed); source: E. coli BL21(DE3), purified (Ni-NTA, amylose, anion exchange, SEC where appropriate); not shown: His6, N-terminal, cleaved; MBP, N-terminal, cleaved
On to B2, for which the binding result in data set [2] was “binds”.

B3: SYCE3 1–88 W41A/Y44A (natural protein, human, UniProt A1L190 1-88, looked up)
chain: MDDADPEERNYDNMLKMLSDLNKDLEKLLEEMEKISVQATAMAADMVVMRTNPTLAESMRRLEDAFVNCKEEMEKNWQELLHETKQRL
notes: SYCE3, human, amino acids 1–88 with W41A and Y44A; also called SYCE3 W41A/Y44A; source: E. coli BL21(DE3), purified (Ni-NTA, amylose, anion exchange, SEC where appropriate); not shown: His6, N-terminal, cleaved; MBP, N-terminal, cleaved
With B3, the “stoichiometry N” value in data set [3] was 2 and 4.

B4: SYCE3 1–88 W41E/Y44E (natural protein, human, UniProt A1L190 1-88, looked up)
chain: MDDADPEERNYDNMLKMLSDLNKDLEKLLEEMEKISVQATEMAEDMVVMRTNPTLAESMRRLEDAFVNCKEEMEKNWQELLHETKQRL
notes: SYCE3, human, amino acids 1–88 with W41E and Y44E; also called SYCE3 W41E/Y44E; source: E. coli BL21(DE3), purified (Ni-NTA, amylose, anion exchange, SEC where appropriate); not shown: His6, N-terminal, cleaved; MBP, N-terminal, cleaved
As for B4, the “stoichiometry N” value in data set [3] is 2.

B5: SYCE3 1–88 PPP-loop (natural protein, human, UniProt A1L190 1-88, looked up)
chain: MDDADPEERNYDNMLKMLSDLNKDLEKLLEEMEKISVQATWMAYDMVVGGPPPTLAESMRRLEDAFVNCKEEMEKNWQELLHETKQRL
notes: also called SYCE3 PPP-loop; source: E. coli BL21(DE3), purified (Ni-NTA, amylose, anion exchange, SEC where appropriate); not shown: His6, N-terminal, cleaved; MBP, N-terminal, cleaved
For B5, in data set [3], the “stoichiometry N” value is 2.

B6: Human SYCE3 full-length (amino acids 1–88) (natural protein, UniProt A1L190 1-88, looked up)
chain: MDDADPEERNYDNMLKMLSDLNKDLEKLLEEMEKISVQATWMAYDMVVMRTNPTLAESMRRLEDAFVNCKEEMEKNWQELLHETKQRL
notes: SYCE3, human, full length, amino acids 1–88 (protein of 88 amino acids); it assembles further with concentration; Tags removed with TEV protease; also called SYCE3 1–88; WT SYCE3; source: E. coli BL21(DE3), purified (Ni-NTA, amylose, anion exchange, SEC where appropriate); not shown: His6, N-terminal, cleaved; MBP, N-terminal, cleaved
In the case of B6, the “stoichiometry N” value in data set [1] is 24.

B7: SYCE3 1–88 P53Q (natural protein, human, UniProt A1L190 1-88, looked up)
chain: MDDADPEERNYDNMLKMLSDLNKDLEKLLEEMEKISVQATWMAYDMVVMRTNQTLAESMRRLEDAFVNCKEEMEKNWQELLHETKQRL
notes: SYCE3, human, amino acids 1–88 with P53Q; also called SYCE3 P53Q; source: E. coli BL21(DE3), purified (Ni-NTA, amylose, anion exchange, SEC where appropriate); not shown: His6, N-terminal, cleaved; MBP, N-terminal, cleaved
Regarding B7, the binding result in data set [3] is “binds”.

B8: MBP-SYCE3 fusion protein (natural protein, human, UniProt A1L190 1-88, looked up)
chain: MDDADPEERNYDNMLKMLSDLNKDLEKLLEEMEKISVQATWMAYDMVVMRTNPTLAESMRRLEDAFVNCKEEMEKNWQELLHETKQRL
notes: SYCE3, human; source: E. coli BL21(DE3), purified; not shown: MBP, N-terminal, kept
Consider B8, for which, in data set [1], the “stoichiometry N” value is 4 and 6.

B9: SYCE3 12–88 L15N (domain or fragment, human, UniProt A1L190 12-88, looked up)
chain: DNMNKMLSDLNKDLEKLLEEMEKISVQATWMAYDMVVMRTNPTLAESMRRLEDAFVNCKEEMEKNWQELLHETKQRL
notes: SYCE3, human, amino acids 12–88 with point mutation L15N; source: E. coli BL21(DE3), purified (Ni-NTA, amylose, anion exchange, SEC where appropriate); not shown: His6, N-terminal, cleaved; MBP, N-terminal, cleaved
As to B9, in data set [3], the “stoichiometry N” value came out at 2.

B10: SYCE3 12–88 (domain or fragment, human, UniProt A1L190 12-88, looked up)
chain: DNMLKMLSDLNKDLEKLLEEMEKISVQATWMAYDMVVMRTNPTLAESMRRLEDAFVNCKEEMEKNWQELLHETKQRL
notes: SYCE3, human, amino acids 12–88 (α1 N-terminal tip removed, structural core kept); source: E. coli BL21(DE3), purified (Ni-NTA, amylose, anion exchange, SEC where appropriate); not shown: His6, N-terminal, cleaved; MBP, N-terminal, cleaved
On to B10, for which the “stoichiometry N” value in data set [1] is 2.

One may read the stoichiometry N as a count of units in the complex or per binding partner.
